This is an account of results in publication PMC10468207.

Assay [1] deals with kinase-dead CaMKII (K42R and D135N double mutant) with C-terminal AviTag (human) (UniProt Q9UQM7). Put plainly: mass photometry; 400 nM CaMKII, basal conditions; 25 mM Tris pH 8, 150 mM KCl, 1 mM TCEP; Refeyn One MP.
Assay [2] shares this target. Nature of the assay: mass photometry; 400 nM CaMKII, activating conditions (8 µM CaMKII incubated with 1.5 µM Ca2+:CaM, 1 mM ATP, 2 mM MgCl2 for 5 min at room temperature, then diluted); 25 mM Tris pH 8, 150 mM KCl, 1 mM TCEP.
Assay [3] shares this target. Nature of the assay: SEC; Superose 6 10/300 increase column; SEC buffer 25 mM Tris pH 8, 250 mM NaCl, 1% glycerol, 1 mM TCEP; assembly of subunits into the holoenzyme.
A further assay has as its target CaMKII^F394BzF (human) (UniProt Q9UQM7). Described as above.

As for “kinase-dead CaMKII (K42R and D135N double mutant) with C-terminal AviTag (from UniProt Q9UQM7 6-478) (enzyme)”, the stoichiometry N in assay [1] turned out to be 10; in assay [2], 4; in assay [3], 12. In assay [2], this substance yielded a percent in the tetramer peak of 12%.
As to “CaMKII^F394BzF (from UniProt Q9UQM7 6-478) (enzyme)”, in the assay with CaMKII^F394BzF (human), the stoichiometry N turned out to be 12.

For orientation: stoichiometry N means the number of molecules, sites or subunits per partner or assembly.
